Results taken from patent CN111705065A.

Molecular target: 重组KRAS突变体蛋白 (KRAS Mut)
Assay: indirect ELISA, KRAS Mut coated at 1 μg/mL, antibody diluted 1:10^3 to 1:10^6, HRP goat anti-mouse, OD450

Sequence of 重组KRAS突变体蛋白 (KRAS Mut) (chain, as listed by the source limits assumed): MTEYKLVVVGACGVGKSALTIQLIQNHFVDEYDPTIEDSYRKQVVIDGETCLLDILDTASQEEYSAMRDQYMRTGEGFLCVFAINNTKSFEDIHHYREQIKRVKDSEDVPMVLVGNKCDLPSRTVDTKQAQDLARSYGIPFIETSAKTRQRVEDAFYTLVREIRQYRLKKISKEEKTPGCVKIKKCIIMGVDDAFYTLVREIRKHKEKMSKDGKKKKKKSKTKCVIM

效价 (ELISA titer) (dilution factor (1:x)): 100000
B1: 抗KRAS突变体单克隆抗体 KRAS Mut mAb (antibody, V domains shown)
VH: QIQLQESGPGLVKPSQSLSLTCTVTGYSITSDYAWNWIRQFPGNKLEWMGYINYSGSTSYNPSLKSRISITRDTSKNQFFLQLISVTSEDTATYYCAGSGYVRGFAYWGQGTLVTVSA
VL: DICKTQSHKFMSTSVGDRVSITCKASQDVGTAVAWYQQKPGQSPKLLIYWASTRHTGVPDRFTGSESGTDFTLTISNVQSEDLADYFCQQYSSYPYTFGGGTKLEIKR
